# Reference: publication PMC12186490 (2025)
# B1: NRPS regulator NrpR (amino acids 1-285), recombinant, untagged (receptor)
# chain: GSHMNFGQAIDHLRRQKHFSVKQICGNYLSRQTYYRFVNNEVDISSTKLFYLLNHLNVNVDEFLFICNNFQLEKEFTDMEKIKIYFEKNNIVGLQNLLTSYSSQINVKEKIIYALISSLLGRLTNTSSCTEEKILRDYLINIETWTHYETVLFNNAMFIFDSEFIELIFRKINLNLEKYSTLRYYGNESIRMFINMIILYIDRQDIRRAKEALQIAKNFKINDDCMYEKSCIVFFNEVLNLLNGEISSLKICKSIIKYFNLIGSLSIAAMFESYLDTLIKNNPHITFN
# Tests used:
# [1] = target: T1, fluorescein-labeled synthetic NRPS-inducing peptide (NIP) (Streptococcus salivarius K12, fluorescein label); experiment: FP; pH 6.5
# [2] = target: T1, fluorescein-labeled synthetic …; experiment: FP; pH 7.5
# [3] = target: T1, fluorescein-labeled synthetic …; experiment: FP; pH 5.5
# [4] = target: T1, fluorescein-labeled synthetic …; experiment: FP; pH 7.5; remark: listed apart in the source
# [5] = target: T1, fluorescein-labeled synthetic …; experiment: FP; pH 5.0
# [6] = target: T1, fluorescein-labeled synthetic …; experiment: FP; pH 5.5; remark: listed apart in the source
# [7] = target: T1, fluorescein-labeled synthetic …; experiment: FP; pH 7.0
# [8] = target: T1, fluorescein-labeled synthetic …; experiment: FP; pH 6.0
binder,measurement,setting,value
B1,Kd,[1],16.2 nM
same,Kd,[2],20.4 nM
same,Kd,[3],6.1 nM
same,Kd,[4],26 nM
same,Kd,[5],18 nM
same,Kd,[6],7.5 nM
same,Kd,[7],18.4 nM
same,Kd,[8],12.2 nM
